Legend:
[1] = test system: Pta variant with HRV protease cleavage motif inserted after amino acid 387
[2] = test system: Pgi with HRV 3C recognition sequence inserted after amino acid 527
[3] = test system: Pgi with HRV 3C recognition sequence inserted after amino acid 531
[4] = test system: Pgi with HRV 3C recognition sequence inserted after amino acid 108
[5] = test system: Pgi with HRV 3C recognition sequence inserted after amino acid 410
[6] = test system: Pgi with HRV 3C recognition sequence inserted after amino acid 138
[7] = test system: Pgi with HRV 3C recognition sequence inserted after amino acid 528
[8] = test system: Pgi with HRV 3C recognition sequence inserted after amino acid 110
[9] = test system: Pta variant with HRV protease cleavage motif inserted after amino acid 409
[10] = test system: Pta variant with HRV protease cleavage motif inserted after amino acid 381
[11] = test system: Pta variant with HRV protease cleavage motif inserted after amino acid 382
[12] = test system: Pgi-HRV-I526 (Pgi with HRV 3C recognition sequence inserted after amino acid 526)
[13] = test system: Pgi with HRV 3C recognition sequence inserted after amino acid 529
[14] = test system: Pgi with HRV 3C recognition sequence inserted after amino acid 109
[15] = test system: Pgi with HRV 3C recognition sequence inserted after amino acid 530
[16] = test system: Pgi with HRV 3C recognition sequence inserted after amino acid 532
[17] = test system: wild-type Pgi protein (phosphoglucose isomerase of Escherichia coli)

Substance: exogenous HRV 3C protease (ACCELAGEN H0101S)
- in vitro Pta activity with or without exogenously supplied HRV protease, 30 minutes at 37 C [1]: In all cases, Pta activity was dramatically reduced upon incubation with HRV protease.
- Pgi Activity/Activity wild type, +protease; -protease value 0.84 [2]: 0.6
- Pgi activity in clarified lysate, +protease (10 units exogenous HRV 3C protease, 4 h, 37 C); -protease value 1.93 (µmol/min/mg total protein) [2]: 1.42
- Pgi Activity/Activity wild type, +protease; -protease value 0.56 [3]: 0.28
- Pgi activity in clarified lysate, +protease (10 units exogenous HRV 3C protease, 4 h, 37 C); -protease value 1.29 (µmol/min/mg total protein) [3]: 0.67
- Pgi Activity/Activity wild type, +protease; -protease value 0.94 [4]: 0.86
- Pgi activity in clarified lysate, +protease (10 units exogenous HRV 3C protease, 4 h, 37 C); -protease value 2.16 (µmol/min/mg total protein) [4]: 2.03
- Pgi Activity/Activity wild type, +protease; -protease value 0.50 [5]: 0.41
- Pgi activity in clarified lysate, +protease (10 units exogenous HRV 3C protease, 4 h, 37 C); -protease value 1.16 (µmol/min/mg total protein) [5]: 0.96
- Pgi Activity/Activity wild type, +protease; -protease value 0.27 [6]: 0.16
- Pgi activity in clarified lysate, +protease (10 units exogenous HRV 3C protease, 4 h, 37 C); -protease value 0.62 (µmol/min/mg total protein) [6]: 0.37
- Pgi Activity/Activity wild type, +protease; -protease value 0.45 [7]: 0.26
- Pgi activity in clarified lysate, +protease (10 units exogenous HRV 3C protease, 4 h, 37 C); -protease value 1.04 (µmol/min/mg total protein) [7]: 0.63
- Pgi Activity/Activity wild type, +protease; -protease value 0.92 [8]: 0.84
- Pgi activity in clarified lysate, +protease (10 units exogenous HRV 3C protease, 4 h, 37 C); -protease value 2.13 (µmol/min/mg total protein) [8]: 1.99
- in vitro Pta activity with or without exogenously supplied HRV protease, 30 minutes at 37 C [9]: In all cases, Pta activity was dramatically reduced upon incubation with HRV protease.
- in vitro Pta activity with or without exogenously supplied HRV protease, 30 minutes at 37 C [10]: In all cases, Pta activity was dramatically reduced upon incubation with HRV protease.
- in vitro Pta activity with or without exogenously supplied HRV protease, 30 minutes at 37 C [11]: In all cases, Pta activity was dramatically reduced upon incubation with HRV protease.
- Pgi Activity/Activity wild type, +protease; -protease value 0.83 [12]: 0.19
- Pgi activity in clarified lysate, +protease (10 units exogenous HRV 3C protease, 4 h, 37 C); -protease value 1.92 (µmol/min/mg total protein) [12]: 0.44
- Pgi Activity/Activity wild type, +protease; -protease value 0.64 [13]: 0.5
- Pgi activity in clarified lysate, +protease (10 units exogenous HRV 3C protease, 4 h, 37 C); -protease value 1.48 (µmol/min/mg total protein) [13]: 1.19
- Pgi Activity/Activity wild type, +protease; -protease value 1.10 [14]: 0.78
- Pgi activity in clarified lysate, +protease (10 units exogenous HRV 3C protease, 4 h, 37 C); -protease value 2.54 (µmol/min/mg total protein) [14]: 1.86
- Pgi Activity/Activity wild type, +protease; -protease value 0.33 [15]: 0.12
- Pgi activity in clarified lysate, +protease (10 units exogenous HRV 3C protease, 4 h, 37 C); -protease value 0.77 (µmol/min/mg total protein) [15]: 0.29
- Pgi Activity/Activity wild type, +protease; -protease value 0.50 [16]: 0.22
- Pgi activity in clarified lysate, +protease (10 units exogenous HRV 3C protease, 4 h, 37 C); -protease value 1.15 (µmol/min/mg total protein) [16]: 0.52
- Pgi Activity/Activity wild type, +protease; -protease value 1 [17]: 1
- Pgi activity in clarified lysate, +protease (10 units exogenous HRV 3C protease, 4 h, 37 C); -protease value 2.31 (µmol/min/mg total protein) [17]: 2.37
